Experimental data as given in article PMC8257531, “ARL15 modulates magnesium homeostasis through N-glycosylation of CNNMs” (Cellular and Molecular Life Sciences: CMLS, 2021).

B1: Pure ARL15 (gel filtration) (natural protein, UniProt Q9NXU5 1-204, looked up)
chain: MSDLRITEAFLYMDYLCFRALCCKGPPPARPEYDLVCIGLTGSGKTSLLSKLCSESPDNVVSTTGFSIKAVPFQNAILNVKELGGADNIRKYWSRYYQGSQGVIFVLDSASSEDDLEAARNELHSALQHPQLCTLPFLILANHQDKPAARSVQEIKKYFELEPLARGKRWILQPCSLDDMDALKDSFSQLINLLEEKDHEAVRM
notes: ARL15, purified; theoretical mass of the monomer printed as 19.57 kDa; The printed theoretical mass of 19.57 kDa is below that of whole ARL15, so a shortened construct is likely
B2: CNNM2BAT (domain or fragment, UniProt Q9H8M5 429-584, looked up)
chain: KEELNIIQGALELRTKTVEDVMTPLRDCFMITGEAILDFNTMSEIMESGYTRIPVFEGERSNIVDLLFVKDLAFVDPDDCTPLKTITKFYNHPLHFVFNDTKLDAMLEEFKKGKSHLAIVQRVNNEGEGDPFYEVLGIVTLEDVIEEIIKSEILDE
notes: Bateman module (CBS1 and CBS2) of CNNM2, purified; theoretical mass of the monomer printed as 17.72 kDa; also called Bateman module of CNNM2

Legend:
[1] = target: the molecule itself; assay: SEC; Superdex 200 Increase 10/300 GL, 1 mg/mL protein, 0.5 ml/min, 50 mM Hepes pH 8.5, 200 mM NaCl, 1 mM MgCl2, 1 mM TCEP; masses from a calibration line
CNNM2BAT = target: B2; assay: as above; conditions: both partners purified

Row | stoichiometry N (CNNM2BAT) | Binder | stoichiometry N [1]
1 | 1 ARL15 per CNNM2BAT (2:2) | B1 | 2
2 |  | B2 | 2
